The supplement of paper PMC9112550, “Optimization of the antimicrobial peptide Bac7 by deep mutational scanning” (BMC Biology, 2022)

Tested on: Escherichia coli TOP10
Experiment: shrunken log2 fold change of peptide-encoding DNA abundance (4.5 h post-induction vs induction); higher = less antimicrobial activity (less host growth inhibition)
Conditions: time post-induction: 4.5 h; library: site-saturation at positions 5, 18, 19, 20
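Also: peptides expressed intracellularly from a pBAD plasmid library in pooled LB shake-flask culture, induced with 0.3% L-arabinose, DNA abundance read by NGS, three biological replicates, DESeq2 with apeglm shrinkage.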

RRIRPRPPRLPRPRPRPSRRPRP
shrunken log2 fold change: -0.179

RRIRDRPPRLPRPRPRPYYNPRP
shrunken log2 fold change: -1.01

RRIRERPPRLPRPRPRPYQAPRP
shrunken log2 fold change: 0.019

RRIRVRPPRLPRPRPRPFCSPRP
shrunken log2 fold change: 0.0261

RRIRHRPPRLPRPRPRPIWHPRP
shrunken log2 fold change: -0.327

RRIRCRPPRLPRPRPRPHVSPRP
shrunken log2 fold change: -0.37

RRIRWRPPRLPRPRPRPWSKPRP
shrunken log2 fold change: -0.191

RRIRGRPPRLPRPRPRPVIMPRP
shrunken log2 fold change: 0.258

RRIRVRPPRLPRPRPRPIVTPRP
shrunken log2 fold change: -0.214

RRIRRRPPRLPRPRPRPWERPRP
shrunken log2 fold change: -0.0262

RRIRCRPPRLPRPRPRPARWPRP
shrunken log2 fold change: 0.56

RRIRYRPPRLPRPRPRPMPDPRP
shrunken log2 fold change: -0.204

RRIRNRPPRLPRPRPRPGVVPRP
shrunken log2 fold change: 0.176

RRIRCRPPRLPRPRPRPIHFPRP
shrunken log2 fold change: -0.368

RRIRLRPPRLPRPRPRPFWAPRP
shrunken log2 fold change: 0.0214

RRIRERPPRLPRPRPRPMPWPRP
shrunken log2 fold change: 0.0819

RRIRCRPPRLPRPRPRPHASPRP
shrunken log2 fold change: -0.224

RRIRDRPPRLPRPRPRPYIRPRP
shrunken log2 fold change: -0.12

RRIRGRPPRLPRPRPRPEGKPRP
shrunken log2 fold change: 0.574

RRIRTRPPRLPRPRPRPHQGPRP
shrunken log2 fold change: -0.0325

RRIRYRPPRLPRPRPRPYMVPRP
shrunken log2 fold change: -0.386

RRIRYRPPRLPRPRPRPQMDPRP
shrunken log2 fold change: -0.801

RRIRPRPPRLPRPRPRPTDWPRP
shrunken log2 fold change: 0.257

RRIRARPPRLPRPRPRPLQQPRP
shrunken log2 fold change: 0.752

RRIRLRPPRLPRPRPRPESVPRP
shrunken log2 fold change: 0.255

RRIRNRPPRLPRPRPRPKHMPRP
shrunken log2 fold change: -0.382

RRIRMRPPRLPRPRPRPAVRPRP
shrunken log2 fold change: 0.835

RRIRTRPPRLPRPRPRPVPIPRP
shrunken log2 fold change: -0.0974

RRIRPRPPRLPRPRPRPVCPPRP
shrunken log2 fold change: 0.0159

RRIRDRPPRLPRPRPRPHDRPRP
shrunken log2 fold change: -0.00543

RRIRYRPPRLPRPRPRPGKMPRP
shrunken log2 fold change: 0.00758

RRIRMRPPRLPRPRPRPESHPRP
shrunken log2 fold change: 0.076

RRIRDRPPRLPRPRPRPILYPRP
shrunken log2 fold change: -0.131

RRIRYRPPRLPRPRPRPYAPPRP
shrunken log2 fold change: -0.784

RRIRERPPRLPRPRPRPFWFPRP
shrunken log2 fold change: -0.303

RRIRYRPPRLPRPRPRPWGQPRP
shrunken log2 fold change: 0.00911

RRIRARPPRLPRPRPRPVGIPRP
shrunken log2 fold change: -0.102

RRIRQRPPRLPRPRPRPKDFPRP
shrunken log2 fold change: -0.00088

RRIRTRPPRLPRPRPRPWDQPRP
shrunken log2 fold change: -0.00674

RRIRGRPPRLPRPRPRPEHKPRP
shrunken log2 fold change: 0.464

RRIRLRPPRLPRPRPRPEPYPRP
shrunken log2 fold change: -0.305

RRIRTRPPRLPRPRPRPWERPRP
shrunken log2 fold change: -0.0102

RRIRLRPPRLPRPRPRPVFIPRP
shrunken log2 fold change: -0.454

RRIRSRPPRLPRPRPRPHMYPRP
shrunken log2 fold change: -0.37

RRIRRRPPRLPRPRPRPHCIPRP
shrunken log2 fold change: 0.0457

RRIRWRPPRLPRPRPRPPHEPRP
shrunken log2 fold change: 0.0628

RRIRTRPPRLPRPRPRPSRSPRP
shrunken log2 fold change: -0.0434

RRIRERPPRLPRPRPRPFNRPRP
shrunken log2 fold change: -0.0972

RRIRDRPPRLPRPRPRPQSNPRP
shrunken log2 fold change: -0.109

RRIRLRPPRLPRPRPRPKMIPRP
shrunken log2 fold change: -0.378

RRIRGRPPRLPRPRPRPPPLPRP
shrunken log2 fold change: 1.16

RRIRYRPPRLPRPRPRPIMEPRP
shrunken log2 fold change: -0.0134

RRIRQRPPRLPRPRPRPECRPRP
shrunken log2 fold change: 0.414

RRIRTRPPRLPRPRPRPERYPRP
shrunken log2 fold change: 0.0845

RRIRCRPPRLPRPRPRPHFYPRP
shrunken log2 fold change: -0.305

RRIRIRPPRLPRPRPRPFVYPRP
shrunken log2 fold change: -0.625

RRIRKRPPRLPRPRPRPLSRPRP
shrunken log2 fold change: 0.254

RRIRYRPPRLPRPRPRPGMAPRP
shrunken log2 fold change: -0.262

RRIRKRPPRLPRPRPRPSISPRP
shrunken log2 fold change: 0.146

RRIRFRPPRLPRPRPRPNISPRP
shrunken log2 fold change: -0.503
